# T1: Boi1 SH3 (BOI1_YEAST), P38041
# T1 chain: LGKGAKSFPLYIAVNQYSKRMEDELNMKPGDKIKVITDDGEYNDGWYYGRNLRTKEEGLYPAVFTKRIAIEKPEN
# T2: Boi2 SH3 (BOI2_YEAST), P39969
# T2 chain: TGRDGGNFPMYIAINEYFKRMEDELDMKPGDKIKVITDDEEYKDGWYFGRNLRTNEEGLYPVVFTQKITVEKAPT
# T3: Rvs167 SH3 (RV167_YEAST), P39743
# T3 chain: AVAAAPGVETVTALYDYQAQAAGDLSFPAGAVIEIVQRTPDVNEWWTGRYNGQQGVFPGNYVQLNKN
# T4: Yfr024 SH3 (LSB3_YEAST), P43603
# T4 chain: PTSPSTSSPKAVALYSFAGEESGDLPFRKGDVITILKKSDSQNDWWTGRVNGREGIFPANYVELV
# T5: Yhr016c SH3 (YSC84_YEAST), P32793
# T5 chain: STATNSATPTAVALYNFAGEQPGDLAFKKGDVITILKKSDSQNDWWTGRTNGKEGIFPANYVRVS
# Target: T1, Boi1 SH3 (BOI1_YEAST), P38041
# Test: SPOT array
row,Binder,"normalised SPOT signal, Boehringer light units (BLU); mean over the file's lines of this peptide"
1,FYEPLDPQKDKDMT [YJL155C 176-189],71.3
2,FWNPENPYKFVHPR [YEL011W 171-184],169
3,FTAPPVPTKKKSKN [YDR517W 316-329],346
4,FQPPPKPFRRSQSS [YBR108W 657-670],800
5,FRFPRLPQKKKEEL [YGL130W 106-119],105
6,FPDPNNPSKVQIRM [YAL051W 375-388],103
7,FPYPFKPSRVGVKY [YGL131C 440-453],178
8,FSKPQEPVKAEEAE [YCR088W 393-406],76.7
9,FVIPGVPSKSYSLF [YGR065C 310-323],94
10,FPYPGNPLKIINYE [YGR233C 862-875],125

# Results, then the binder that gave them:
row,"normalised SPOT signal, Boehringer light units (BLU); mean over the file's lines of this peptide",Binder
1,898,FVSPRIPSRIVKNG [YOR086C 892-905]
2,11000,FVPPNLPMRRFKEI [YNL047C 421-434]
3,255,FNGPEPPIKRLKKA [YNL286W 148-161]
4,96.3,FVLPSLPRKNTYKV [YOR034C 343-356]
5,133,FREPDLPRKGLLED [YJR054W 476-489]
6,96.5,FLSPGKPSKGTSLH [YML005W 163-176]
7,94.3,GAIPRGPKKDDASF [YPR161C 424-437]
8,52.4,FPFPTPPDRVALSK [YMR128W 865-878]
9,867,FYYPESPTKNLRPR [YML119W 56-69]

# Target: T2, Boi2 SH3 (BOI2_YEAST), P39969
# Test: SPOT array
row,Binder,"normalised SPOT signal, Boehringer light units (BLU); mean over the file's lines of this peptide"
1,FYEPLDPQKDKDMT [YJL155C 176-189],19.8
2,FWNPENPYKFVHPR [YEL011W 171-184],55.6
3,FTAPPVPTKKKSKN [YDR517W 316-329],44.8
4,FQPPPKPFRRSQSS [YBR108W 657-670],308
5,FRFPRLPQKKKEEL [YGL130W 106-119],172
6,FPDPNNPSKVQIRM [YAL051W 375-388],21.5
7,FPYPFKPSRVGVKY [YGL131C 440-453],81.9
8,FSKPQEPVKAEEAE [YCR088W 393-406],23.9
9,FVIPGVPSKSYSLF [YGR065C 310-323],48.3
10,FPYPGNPLKIINYE [YGR233C 862-875],39

# Other lines, results leading:
row,"normalised SPOT signal, Boehringer light units (BLU); mean over the file's lines of this peptide",Binder
1,1080,FVSPRIPSRIVKNG [YOR086C 892-905]
2,160,FVPPNLPMRRFKEI [YNL047C 421-434]
3,11.4,FNGPEPPIKRLKKA [YNL286W 148-161]
4,20.4,FVLPSLPRKNTYKV [YOR034C 343-356]
5,41.4,FREPDLPRKGLLED [YJR054W 476-489]
6,34.6,FLSPGKPSKGTSLH [YML005W 163-176]
7,5.7,GAIPRGPKKDDASF [YPR161C 424-437]
8,103,FPFPTPPDRVALSK [YMR128W 865-878]
9,44.1,FYYPESPTKNLRPR [YML119W 56-69]

# Target: T3, Rvs167 SH3 (RV167_YEAST), P39743
# Test: SPOT array
row,Binder,"normalised SPOT signal, Boehringer light units (BLU); mean over the file's lines of this peptide"
1,FYEPLDPQKDKDMT [YJL155C 176-189],14.1
2,FWNPENPYKFVHPR [YEL011W 171-184],67.7
3,FTAPPVPTKKKSKN [YDR517W 316-329],86.4
4,FQPPPKPFRRSQSS [YBR108W 657-670],8580
5,FRFPRLPQKKKEEL [YGL130W 106-119],1200
6,FPDPNNPSKVQIRM [YAL051W 375-388],28
7,FPYPFKPSRVGVKY [YGL131C 440-453],118
8,FSKPQEPVKAEEAE [YCR088W 393-406],27.2
9,FVIPGVPSKSYSLF [YGR065C 310-323],0
10,FPYPGNPLKIINYE [YGR233C 862-875],87

# More lines, now with the values ahead:
row,"normalised SPOT signal, Boehringer light units (BLU); mean over the file's lines of this peptide",Binder
1,10100,FVSPRIPSRIVKNG [YOR086C 892-905]
2,11800,FVPPNLPMRRFKEI [YNL047C 421-434]
3,70.5,FNGPEPPIKRLKKA [YNL286W 148-161]
4,16.4,FVLPSLPRKNTYKV [YOR034C 343-356]
5,33.2,FREPDLPRKGLLED [YJR054W 476-489]
6,58.9,FLSPGKPSKGTSLH [YML005W 163-176]
7,48.1,GAIPRGPKKDDASF [YPR161C 424-437]
8,114,FPFPTPPDRVALSK [YMR128W 865-878]
9,28.6,FYYPESPTKNLRPR [YML119W 56-69]

# Target: T4, Yfr024 SH3 (LSB3_YEAST), P43603
# Test: SPOT array
row,Binder,"normalised SPOT signal, Boehringer light units (BLU); mean over the file's lines of this peptide"
1,FYEPLDPQKDKDMT [YJL155C 176-189],121
2,FWNPENPYKFVHPR [YEL011W 171-184],524
3,FTAPPVPTKKKSKN [YDR517W 316-329],9160
4,FQPPPKPFRRSQSS [YBR108W 657-670],45100
5,FRFPRLPQKKKEEL [YGL130W 106-119],19500
6,FPDPNNPSKVQIRM [YAL051W 375-388],98.1
7,FPYPFKPSRVGVKY [YGL131C 440-453],2790
8,FSKPQEPVKAEEAE [YCR088W 393-406],276
9,FVIPGVPSKSYSLF [YGR065C 310-323],44.7
10,FPYPGNPLKIINYE [YGR233C 862-875],49.4

# Results, then the binder that gave them:
row,"normalised SPOT signal, Boehringer light units (BLU); mean over the file's lines of this peptide",Binder
1,34100,FVSPRIPSRIVKNG [YOR086C 892-905]
2,25900,FVPPNLPMRRFKEI [YNL047C 421-434]
3,625,FNGPEPPIKRLKKA [YNL286W 148-161]
4,4240,FVLPSLPRKNTYKV [YOR034C 343-356]
5,1350,FREPDLPRKGLLED [YJR054W 476-489]
6,437,FLSPGKPSKGTSLH [YML005W 163-176]
7,225,GAIPRGPKKDDASF [YPR161C 424-437]
8,834,FPFPTPPDRVALSK [YMR128W 865-878]
9,292,FYYPESPTKNLRPR [YML119W 56-69]

# Target: T5, Yhr016c SH3 (YSC84_YEAST), P32793
# Test: SPOT array
row,Binder,"normalised SPOT signal, Boehringer light units (BLU); mean over the file's lines of this peptide"
1,FYEPLDPQKDKDMT [YJL155C 176-189],129
2,FWNPENPYKFVHPR [YEL011W 171-184],248
3,FTAPPVPTKKKSKN [YDR517W 316-329],216
4,FQPPPKPFRRSQSS [YBR108W 657-670],51000
5,FRFPRLPQKKKEEL [YGL130W 106-119],1370
6,FPDPNNPSKVQIRM [YAL051W 375-388],122
7,FPYPFKPSRVGVKY [YGL131C 440-453],260
8,FSKPQEPVKAEEAE [YCR088W 393-406],773
9,FVIPGVPSKSYSLF [YGR065C 310-323],66.7
10,FPYPGNPLKIINYE [YGR233C 862-875],0

# Continued, values first:
row,"normalised SPOT signal, Boehringer light units (BLU); mean over the file's lines of this peptide",Binder
1,9870,FVSPRIPSRIVKNG [YOR086C 892-905]
2,23200,FVPPNLPMRRFKEI [YNL047C 421-434]
3,42.4,FNGPEPPIKRLKKA [YNL286W 148-161]
4,75.7,FVLPSLPRKNTYKV [YOR034C 343-356]
5,116,FREPDLPRKGLLED [YJR054W 476-489]
6,243,FLSPGKPSKGTSLH [YML005W 163-176]
7,236,GAIPRGPKKDDASF [YPR161C 424-437]
8,358,FPFPTPPDRVALSK [YMR128W 865-878]
9,36.3,FYYPESPTKNLRPR [YML119W 56-69]
